T1: human CD20 (human, UniProt P11836 1-297)
T1 construct: whole, on cells; cell-surface antigen; also called MS4A1
T1 sequence (looked up): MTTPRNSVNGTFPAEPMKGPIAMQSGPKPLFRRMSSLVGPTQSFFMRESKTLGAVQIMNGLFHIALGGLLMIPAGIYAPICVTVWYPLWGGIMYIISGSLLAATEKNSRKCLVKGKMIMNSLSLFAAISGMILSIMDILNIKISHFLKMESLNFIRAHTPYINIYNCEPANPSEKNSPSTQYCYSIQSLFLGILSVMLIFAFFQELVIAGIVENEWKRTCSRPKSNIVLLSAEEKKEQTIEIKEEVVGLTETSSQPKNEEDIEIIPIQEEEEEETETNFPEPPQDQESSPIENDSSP

B1: CD20-C5H1 CAR (other)
chain: QVQLVQSGAEVKKPGASVKVSCKASGYTFTSYNMHWVRQAPGQGLEWMGAIYPGNGDTSYNPKFKGRVTMTADKSTRTAYMELSSLRSEDTAVYYCARSYFYGSSSWYFDVWGQGTTVTVSSGGGGSGGGGSGGGGSGGGGSEIVLTQSPATLSLSPGERATLSCRASSSVSSMHWYQQKPGQAPRPLIFATSNLASGIPARFSGSGSGTDYTLTISSLEPEDAAVYYCQQWIFNPPTFGGGTKVEIKTTTPAPRPPTPAPTIASQPLSLRPEACRPAAGGAVHTRGLDFACDIYIWAPLAGTCGVLLLSLVITLYCKRGRKKLLYIFKQPFMRPVQTTQEEDGCSCRFPEEEEGGCELRVKFSRSADAPAYQQGQNQLYNELNLGRREEYDVLDKRRGRDPEMGGKPRRKNPQEGLYNELQKDKMAEAYSEIGMKGERRRGKGHDGLYQGLSTATKDTYDALHMQALPPR
notes: CAR on cell surface; residues 1-21 = signal peptide
B2: CD20-C5H3 CAR (other)
chain: QVQLVQSGAEVKKPGSSVKVSCKASGYTFTSYNMHWVRQAPGQGLEWMGAIYPGNGDTSYNPKFKGRVTITADKSTRTAYMELSSLRSEDTAVYYCARSYFYGSSSWYFDVWGQGTTVTVSSGGGGSGGGGSGGGGSGGGGSEIVLTQSPATLSLSPGERATLSCRASSSVSSMHWYQQKPGQAPRPLIFATSNLASGIPARFSGSGSGTDYTLTISSLEPEDAAVYYCQQWIFNPPTFGGGTKVEIKTTTPAPRPPTPAPTIASQPLSLRPEACRPAAGGAVHTRGLDFACDIYIWAPLAGTCGVLLLSLVITLYCKRGRKKLLYIFKQPFMRPVQTTQEEDGCSCRFPEEEEGGCELRVKFSRSADAPAYQQGQNQLYNELNLGRREEYDVLDKRRGRDPEMGGKPRRKNPQEGLYNELQKDKMAEAYSEIGMKGERRRGKGHDGLYQGLSTATKDTYDALHMQALPPR
notes: as for B1
B3: CD20-C5H4 CAR (other)
chain: QVQLVQSGAEVKKPGSSVKVSCKASGYTFTSYNMHWVRQAPGQGLEWMGAIYPGNGDTSYNPKFKGRVTITADKSTRTAYMELSSLRSEDTAVYYCARSYFYGSSSWYFDVWGQGTTVTVSSGGGGSGGGGSGGGGSGGGGSDIQLTQSPSFLSASVGDRVTITCRASSSVSSMHWYQQKPGKAPKPLIFATSNLASGVPSRFSGSGSGTEYTLTISSLQPEDFATYYCQQWIFNPPTFGGGTKVEIKTTTPAPRPPTPAPTIASQPLSLRPEACRPAAGGAVHTRGLDFACDIYIWAPLAGTCGVLLLSLVITLYCKRGRKKLLYIFKQPFMRPVQTTQEEDGCSCRFPEEEEGGCELRVKFSRSADAPAYQQGQNQLYNELNLGRREEYDVLDKRRGRDPEMGGKPRRKNPQEGLYNELQKDKMAEAYSEIGMKGERRRGKGHDGLYQGLSTATKDTYDALHMQALPPR
notes: as for B1
B4: CD20-C5H2 CAR (other)
chain: QVQLVQSGAEVKKPGASVKVSCKASGYTFTSYNMHWVRQAPGQGLEWMGAIYPGNGDTSYNPKFKGRVTMTADKSTRTAYMELSSLRSEDTAVYYCARSYFYGSSSWYFDVWGQGTTVTVSSGGGGSGGGGSGGGGSGGGGSDIQLTQSPSFLSASVGDRVTITCRASSSVSSMHWYQQKPGKAPKPLIFATSNLASGVPSRFSGSGSGTEYTLTISSLQPEDFATYYCQQWIFNPPTFGGGTKVEIKTTTPAPRPPTPAPTIASQPLSLRPEACRPAAGGAVHTRGLDFACDIYIWAPLAGTCGVLLLSLVITLYCKRGRKKLLYIFKQPFMRPVQTTQEEDGCSCRFPEEEEGGCELRVKFSRSADAPAYQQGQNQLYNELNLGRREEYDVLDKRRGRDPEMGGKPRRKNPQEGLYNELQKDKMAEAYSEIGMKGERRRGKGHDGLYQGLSTATKDTYDALHMQALPPR
notes: as for B1
B5: CD20-C8H4 CAR (other)
chain: QVQLVQSGAEVKKPGSSVKVSCKASGYTFTRYNMHWVRQAPGQGLEWMGAIYPGNGDTSYSQKFKGRVTITADKSTSTAYMELSSLRSEDTAVYYCARSFFYGSSDWYFDVWGQGTTVTVSSGGGGSGGGGSGGGGSGGGGSDIQLTQSPSFLSASVGDRVTITCRASSSVNNMHWYQQKPGKAPKPLIYATSNLASGVPSRFSGSGSGTEYTLTISSLQPEDFATYYCQQWIFNPPTFGQGTKLEIKTTTPAPRPPTPAPTIASQPLSLRPEACRPAAGGAVHTRGLDFACDIYIWAPLAGTCGVLLLSLVITLYCKRGRKKLLYIFKQPFMRPVQTTQEEDGCSCRFPEEEEGGCELRVKFSRSADAPAYQQGQNQLYNELNLGRREEYDVLDKRRGRDPEMGGKPRRKNPQEGLYNELQKDKMAEAYSEIGMKGERRRGKGHDGLYQGLSTATKDTYDALHMQALPPR
notes: as for B1
B6: CD20-C8H1 CAR (other)
chain: QVQLVQSGAEVKKPGASVKVSCKASGYTFTRYNMHWVRQAPGQRLEWMGAIYPGNGDTSYSQKFKGRVTITADKSASTAYMELSSLRSEDTAVYYCARSFFYGSSDWYFDVWGQGTTVTVSSGGGGSGGGGSGGGGSGGGGSEIVLTQSPDFQSVTPKEKVTITCRASSSVNNMHWYQQKPDQSPKPLIYATSNLASGVPSRFSGSGSGTDYTLTINSLEAEDAATYYCQQWIFNPPTFGQGTKLEIKTTTPAPRPPTPAPTIASQPLSLRPEACRPAAGGAVHTRGLDFACDIYIWAPLAGTCGVLLLSLVITLYCKRGRKKLLYIFKQPFMRPVQTTQEEDGCSCRFPEEEEGGCELRVKFSRSADAPAYQQGQNQLYNELNLGRREEYDVLDKRRGRDPEMGGKPRRKNPQEGLYNELQKDKMAEAYSEIGMKGERRRGKGHDGLYQGLSTATKDTYDALHMQALPPR
notes: as for B1
B7: CD20-C8H3 CAR (other)
chain: QVQLVQSGAEVKKPGSSVKVSCKASGYTFTRYNMHWVRQAPGQGLEWMGAIYPGNGDTSYSQKFKGRVTITADKSTSTAYMELSSLRSEDTAVYYCARSFFYGSSDWYFDVWGQGTTVTVSSGGGGSGGGGSGGGGSGGGGSEIVLTQSPDFQSVTPKEKVTITCRASSSVNNMHWYQQKPDQSPKPLIYATSNLASGVPSRFSGSGSGTDYTLTINSLEAEDAATYYCQQWIFNPPTFGQGTKLEIKTTTPAPRPPTPAPTIASQPLSLRPEACRPAAGGAVHTRGLDFACDIYIWAPLAGTCGVLLLSLVITLYCKRGRKKLLYIFKQPFMRPVQTTQEEDGCSCRFPEEEEGGCELRVKFSRSADAPAYQQGQNQLYNELNLGRREEYDVLDKRRGRDPEMGGKPRRKNPQEGLYNELQKDKMAEAYSEIGMKGERRRGKGHDGLYQGLSTATKDTYDALHMQALPPR
notes: as for B1
B8: CD20-C8H2 CAR (other)
chain: QVQLVQSGAEVKKPGASVKVSCKASGYTFTRYNMHWVRQAPGQRLEWMGAIYPGNGDTSYSQKFKGRVTITADKSASTAYMELSSLRSEDTAVYYCARSFFYGSSDWYFDVWGQGTTVTVSSGGGGSGGGGSGGGGSGGGGSDIQLTQSPSFLSASVGDRVTITCRASSSVNNMHWYQQKPGKAPKPLIYATSNLASGVPSRFSGSGSGTEYTLTISSLQPEDFATYYCQQWIFNPPTFGQGTKLEIKTTTPAPRPPTPAPTIASQPLSLRPEACRPAAGGAVHTRGLDFACDIYIWAPLAGTCGVLLLSLVITLYCKRGRKKLLYIFKQPFMRPVQTTQEEDGCSCRFPEEEEGGCELRVKFSRSADAPAYQQGQNQLYNELNLGRREEYDVLDKRRGRDPEMGGKPRRKNPQEGLYNELQKDKMAEAYSEIGMKGERRRGKGHDGLYQGLSTATKDTYDALHMQALPPR
notes: as for B1
B9: CD20-C2H1 CAR (other)
chain: QVQLVQSGAEVKKPGASVKVSCKASGYTFTNYWMHWVRQAPGQGLEWMGFITPTTGYPEYNQKFKDRVTMTADKSTSTAYMELSSLRSEDTAVYYCARRKVGKGVYYALDYWGQGTTVTVSSGGGGSGGGGSGGGGSGGGGSDIQMTQSPSSLSASVGDRVTITCRASGNIHNYLAWYQQKPGKVPKLLIYNTKTLADGVPSRFSGSGSGTDYTLTISSLQPEDVATYYCQHFWSSPWTFGGGTKVEIKTTTPAPRPPTPAPTIASQPLSLRPEACRPAAGGAVHTRGLDFACDIYIWAPLAGTCGVLLLSLVITLYCKRGRKKLLYIFKQPFMRPVQTTQEEDGCSCRFPEEEEGGCELRVKFSRSADAPAYQQGQNQLYNELNLGRREEYDVLDKRRGRDPEMGGKPRRKNPQEGLYNELQKDKMAEAYSEIGMKGERRRGKGHDGLYQGLSTATKDTYDALHMQALPPR
notes: CAR on cell surface
B10: CD20-C2H2 CAR (other)
chain: QVQLVQSGAEVKKPGSSVKVSCKASGYTFTNYWMHWVRQAPGQGLEWMGFITPTTGYPEYNQKFKDRVTITADKSTSTAYMELSSLRSEDTAVYYCARRKVGKGVYYALDYWGQGTTVTVSSGGGGSGGGGSGGGGSGGGGSDIQMTQSPSSLSASVGDRVTITCRASGNIHNYLAWYQQKPGKVPKLLIYNTKTLADGVPSRFSGSGSGTDYTLTISSLQPEDVATYYCQHFWSSPWTFGGGTKVEIKTTTPAPRPPTPAPTIASQPLSLRPEACRPAAGGAVHTRGLDFACDIYIWAPLAGTCGVLLLSLVITLYCKRGRKKLLYIFKQPFMRPVQTTQEEDGCSCRFPEEEEGGCELRVKFSRSADAPAYQQGQNQLYNELNLGRREEYDVLDKRRGRDPEMGGKPRRKNPQEGLYNELQKDKMAEAYSEIGMKGERRRGKGHDGLYQGLSTATKDTYDALHMQALPPR
notes: as for B1

These binders were tested against T1, human CD20 (assay: worded conclusion from JNL NFAT-luciferase reporter co-culture with CD20-positive cell lines).
From the text: To evaluate the functional ability of CD20 CARs to activate JNL cells, they were co-cultured with target cancer cells to read out their activation by quantifying luciferase expression. The humanized scFv-based CARs CD20-C2H1, -C2H2, -C2H3, -C2H4, -C3H1, -C3H2, -C3H3, -C3H4, -C5H1, -C5H2, -C5H3, -C5H4, -C8H1, -C8H2, -C8H3, and -C8H4, were compared to CD20-8aBBz and CD20-3, -3m, -3J, -3H5k3, and -3H5k1. The control CARs CD20-3 and CD20-8aBBz were used in all assays to compare assay variation and/or act as a control. The EGFRvIII CAR T cells (CAR 2174, Johnson et al., Science Translational Medicine 2015) were used as non-targeting control.
JNL CART cells were co-cultured with the Burkitt's lymphoma line Raji (RRID: CVCL_0511) and the diffuse large B cell lymphoma (DLBCL) lines Pfeiffer (RRID: CVCL_3326), HBL-1 (RRID: CVCL_4213) and TMD8 (RRID: CVCL_A442); K562 (RRID: CVCL_0004), a chronic myelogenous leukemia (CML) cell line, served as CD20-negative control. Co-cultures were set up in 384-well plates at effector-to-target (E:T) ratios of 4:1, 2:1, 1:1 and 0.5:1 and incubated for 24 h, after which the expression of luciferase by the activated JNL CAR T cells was quantified by britelite plus Reporter Gene Assay System (PerkinElmer, Waltham, Mass.). The amount of light emitted from each well (Luminescence) was a direct read-out of JNL activation by the respective CAR. […] Some of the humanized scFvs, which were fused to the transmembrane and signaling domains of the CARs, seem to have improved the efficacy of CARs to activate JNL T cells. These were CD20-C2H1, -C2H3, -C5H1, -C5H2, and -C8H3.

Binding result, binds:
B1
B2
B3
B4
B5
B6
B7
B8
B9
B10

Source: US20180125892A1 (published 2018)
